In US20070082364A1 (Takeda / Millennium, published 2007):

How the values were obtained:
human GPR7 = target: T1, human GPR7 (human, UniProt P48145 1-328); test: cell-based or functional assay
T1 sequence: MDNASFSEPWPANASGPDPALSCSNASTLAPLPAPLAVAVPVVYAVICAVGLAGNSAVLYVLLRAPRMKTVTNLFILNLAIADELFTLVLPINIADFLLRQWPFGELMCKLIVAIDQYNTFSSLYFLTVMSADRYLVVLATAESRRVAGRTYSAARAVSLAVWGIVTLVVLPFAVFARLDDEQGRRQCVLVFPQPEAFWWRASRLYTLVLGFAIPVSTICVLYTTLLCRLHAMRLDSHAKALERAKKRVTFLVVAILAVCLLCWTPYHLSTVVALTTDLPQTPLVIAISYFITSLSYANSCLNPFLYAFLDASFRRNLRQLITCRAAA

human GPR8 = human GPR8 (human, UniProt P48146 1-333); test: cell-based or functional assay
Sequence of human GPR8 (P48146 whole entry): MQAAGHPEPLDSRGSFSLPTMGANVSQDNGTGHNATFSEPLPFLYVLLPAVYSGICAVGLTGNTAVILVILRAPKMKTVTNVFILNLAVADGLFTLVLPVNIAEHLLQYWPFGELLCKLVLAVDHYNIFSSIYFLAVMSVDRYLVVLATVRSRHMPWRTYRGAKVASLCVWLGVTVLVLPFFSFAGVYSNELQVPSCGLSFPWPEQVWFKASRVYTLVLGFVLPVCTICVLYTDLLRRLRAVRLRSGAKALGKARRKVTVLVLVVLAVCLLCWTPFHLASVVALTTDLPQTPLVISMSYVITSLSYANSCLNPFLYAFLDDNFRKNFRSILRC

## WYKHVASPRYHTVGRAAGLLMGL [human neuropeptide W (1-23)]
Human GPR7
  cAMP level in human GPR7-expressed cells, relative to FSK stimulation only: 46%
Human GPR8
  cAMP level in human GPR8-expressed cells, relative to FSK stimulation only: 31%
